In FireProtDB (doi:10.1016/j.jmb.2005.05.056):
Where “and” joins values, the source holds several entries; their conditions need not be identical. Equal entries are not always repeated.

B1: Small ribosomal subunit protein bS6, P23370 (parent)
chain: MRRYEVNIVLNPNLDQSQLALEKEIIQRALENYGARVEKVEELGLRRLAYPIAKDPQGYFLWYQVEMPEDRVNDLARELRIRDNVRRVMVVKSQEPFLANA

Variants of: B1
Settings: Thermus thermophilus; pH 8; 25 °C; GdnHCl; Fluorescence; Tris-HCl 50 mM; reversible: No; structure 1RIS; whole UniProt chain shown

Variant	denaturant m value	denaturant midpoint (higher = more stable)	unfolding free energy	ddG of mutation (higher = less stable)
MRRYEVNIVLNPNLDQSQLALEKEIIQRALENAGARVEKVEELGLRRLAYPIAKDPQGYFLWYQVEMPEDRVNDLARELRIRDNVRRVMVVKSQEPFLANA	2.83 kcal/mol/M and 3.26 kcal/mol/M and 2.34 kcal/mol/M	3.05 M and 3.65 M and 3.82 M	8.6 kcal/mol and 11.9 kcal/mol and 8.9 kcal/mol	
MRRYEVNIVLNPNLDQSQLALEKEIIQRALENYGARVEKVEELGLRRLAYPIAKDPQGYFLWYQVEMPEDRVNDLARELRIRDNARRVMVVKSQEPFLANA	2.51 kcal/mol/M and 2.84 kcal/mol/M	2.05 M and 2.54 M	5.1 kcal/mol and 7.2 kcal/mol	2.9 kcal/mol and 2.3 kcal/mol
MRRYEVNAVLNPNLDQSQLALEKEIIQRALENYGARVEKVEELGLRRLAYPIAKDPQGYFLWYQVEMPEDRVNDLARELRIRDNVRRVMVVKSQEPFLANA	2.78 kcal/mol/M and 2.44 kcal/mol/M and 2.83 kcal/mol/M	1.82 M and 2.05 M and 2.35 M	5.1 kcal/mol and 5 kcal/mol and 6.6 kcal/mol	2.9 kcal/mol and 4.4 kcal/mol
MRRYEVNIVLNPNLDQSQLALEKEIIQRALENYGGRVEKVEELGLRRLAYPIAKDPQGYFLWYQVEMPEDRVNDLARELRIRDNVRRVMVVKSQEPFLANA	2.91 kcal/mol/M and 2.95 kcal/mol/M	3.03 M and 3.5 M	8.8 kcal/mol and 10.3 kcal/mol	0.6 kcal/mol and 0.7 kcal/mol
MRRYEVNIVLNPNLDQSQLALQKEIIQRALENYGARVEKVEELGLRRLAYPIAKDPQGYFLWYQVEMPEDRVNDLARELRIRDNVRRVMVVKSQEPFLANA			7.6 kcal/mol and 8.9 kcal/mol and 11.4 kcal/mol	
MRRYEVNIVLNPNLDQSQLALEKEIIQRALENYGARVEKVEELGLRRLAYPIAKDPQGYFLWYQAEMPEDRVNDLARELRIRDNVRRVMVVKSQEPFLANA	2.61 kcal/mol/M and 2.77 kcal/mol/M and 2.84 kcal/mol/M			
MRRYEVNIVLNPNLDQSQLALEKEIIQRALENYGARVEKVEELGLRRLAYPIAKDPQGYFLWYQVEMPEDRVNDAARELRIRDNVRRVMVVKSQEPFLANA	3.13 kcal/mol/M and 2.95 kcal/mol/M and 3.19 kcal/mol/M	2.71 M and 2.95 M and 3.24 M	8.5 kcal/mol and 8.7 kcal/mol and 10.3 kcal/mol	0.9 kcal/mol and 0.8 kcal/mol and 0.7 kcal/mol
MRRYEVNIVLNPNLDQSQLALEKEIAQRALENYGARVEKVEELGLRRLAYPIAKDPQGYFLWYQVEMPEDRVNDLARELRIRDNVRRVMVVKSQEPFLANA	2.47 kcal/mol/M and 2.61 kcal/mol/M and 2.62 kcal/mol/M	2.09 M and 2.46 M and 2.97 M	5.2 kcal/mol and 6.4 kcal/mol and 7.8 kcal/mol	2.8 kcal/mol and 3 kcal/mol and 3.2 kcal/mol
MRRYEVNIVLNPNLDQSQLALEKEIIQRALENYGARVEKVEELGLRRLAYPIAKDPQGYFLWYQVEMPEDRVNDLARELRIRDNVRRAMVVKSQEPFLANA	3.12 kcal/mol/M and 2.01 kcal/mol/M and 2.82 kcal/mol/M	2.66 M and 2.9 M and 3.2 M	8.3 kcal/mol and 6.5 kcal/mol and 9 kcal/mol	1.1 kcal/mol and 3 kcal/mol and 2 kcal/mol
